Reference: publication PMC6623464, “HTLV-1 basic leucine zipper factor protects cells from oxidative stress by upregulating expression of Heme Oxygenase I”

Tests used:
MafG-His;T7-HBZ-bZIP [1] = molecular target: T1, MafG-His;T7-HBZ-bZIP (human?;HTLV-1, UniProt O15525;P0C746-2 1-162;120-206, |); assay: EMSA; most pronounced increase over MafG alone; EMSA: 0.5x TM (100 mM Tris-HCl pH 7.5, 20 mM MgSO4 as printed), 1 mM DTT, 1 ug BSA, 100 ng poly(dA)-poly(dT), 2-10 fmol probe, 20 C, 1 h; proteins stored in 50; settings: protein: recombinant;recombinant; tags: 6xHis (pRSET A);T7; copies: 1;1; label: 32P end label
MafG-His [2] = molecular target: T2, MafG-His (UniProt O15525 1-162); assay: EMSA; EMSA: 0.5x TM (100 mM Tris-HCl pH 7.5, 20 mM MgSO4 as printed), 1 mM DTT, 1 ug BSA, 100 ng poly(dA)-poly(dT), 2-10 fmol probe, 20 C, 1 h; proteins stored in 50; settings: protein: recombinant; tags: 6xHis (pRSET A); chain copies: 2; label: 32P end label
MafG-His;T7-HBZ-bZIP [3] = molecular target: T1, MafG-His;T7-HBZ-bZIP; assay: EMSA; increased over MafG alone; EMSA: 0.5x TM (100 mM Tris-HCl pH 7.5, 20 mM MgSO4 as printed), 1 mM DTT, 1 ug BSA, 100 ng poly(dA)-poly(dT), 2-10 fmol probe, 20 C, 1 h; proteins stored in 50; settings: protein: recombinant;recombinant; tags: 6xHis (pRSET A);T7; copies: 1;1; label: 32P end label
MafG-His [4] = molecular target: T2, MafG-His; assay: EMSA; MafG 0.5 or 1 nM; EMSA: 0.5x TM (100 mM Tris-HCl pH 7.5, 20 mM MgSO4 as printed), 1 mM DTT, 1 ug BSA, 100 ng poly(dA)-poly(dT), 2-10 fmol probe, 20 C, 1 h; proteins stored in 50; settings: protein: recombinant; tags: 6xHis (pRSET A); chain copies: 2; label: 32P end label
GST-HBZ = GST-HBZ (HTLV-1, UniProt P0C746-2 1-206); assay: EMSA; HBZ 50 nM, no MafG; EMSA: 0.5x TM (100 mM Tris-HCl pH 7.5, 20 mM MgSO4 as printed), 1 mM DTT, 1 ug BSA, 100 ng poly(dA)-poly(dT), 2-10 fmol probe, 20 C, 1 h; proteins stored in 50; settings: protein: recombinant; tags: GST; chain copies: 2; label: 32P end label
MafG-His;T7-HBZ-bZIP [5] = molecular target: T1, MafG-His;T7-HBZ-bZIP; assay: EMSA; increased over MafG alone; MafG 0.5 nM; EMSA: 0.5x TM (100 mM Tris-HCl pH 7.5, 20 mM MgSO4 as printed), 1 mM DTT, 1 ug BSA, 100 ng poly(dA)-poly(dT), 2-10 fmol probe, 20 C, 1 h; proteins stored in 50; settings: protein: recombinant;recombinant; tags: 6xHis (pRSET A);T7; copies: 1;1; label: 32P end label
GST-HBZ-AD = GST-HBZ-AD (HTLV-1, UniProt P0C746-2 1-57); assay: EMSA; HBZ-AD 50 nM, no MafG; EMSA: 0.5x TM (100 mM Tris-HCl pH 7.5, 20 mM MgSO4 as printed), 1 mM DTT, 1 ug BSA, 100 ng poly(dA)-poly(dT), 2-10 fmol probe, 20 C, 1 h; proteins stored in 50; settings: protein: recombinant; tags: GST; label: 32P end label
MafG-His;T7-HBZ-bZIP [6] = molecular target: T1, MafG-His;T7-HBZ-bZIP; assay: EMSA; HBZ-bZIP diminished the MafG complex; authors conclude heterodimer does not bind; EMSA: 0.5x TM (100 mM Tris-HCl pH 7.5, 20 mM MgSO4 as printed), 1 mM DTT, 1 ug BSA, 100 ng poly(dA)-poly(dT), 2-10 fmol probe, 20 C, 1 h; proteins stored in 50; settings: protein: recombinant;recombinant; tags: 6xHis (pRSET A);T7; copies: 1;1; label: 32P end label
MafG-His [7] = molecular target: T2, MafG-His; assay: EMSA; MafG 0.5 nM; higher apparent affinity than distal MAREs; EMSA: 0.5x TM (100 mM Tris-HCl pH 7.5, 20 mM MgSO4 as printed), 1 mM DTT, 1 ug BSA, 100 ng poly(dA)-poly(dT), 2-10 fmol probe, 20 C, 1 h; proteins stored in 50; settings: protein: recombinant; tags: 6xHis (pRSET A); chain copies: 2; label: 32P end label

GST-HBZ, sequence (P0C746 8-209, tags left off): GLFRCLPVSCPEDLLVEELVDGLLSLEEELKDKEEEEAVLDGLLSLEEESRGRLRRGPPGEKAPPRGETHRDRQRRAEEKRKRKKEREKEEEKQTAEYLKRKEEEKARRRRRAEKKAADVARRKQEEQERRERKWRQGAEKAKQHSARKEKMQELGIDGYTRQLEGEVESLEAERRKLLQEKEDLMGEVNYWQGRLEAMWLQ
GST-HBZ-AD, sequence (P0C746 8-60, tags left off): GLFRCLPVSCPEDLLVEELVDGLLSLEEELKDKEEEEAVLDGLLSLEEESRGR

B1: HMOX1 Distal 3 MARE probe (dsDNA)
DNA 1: TGTCTGTTTTCGCTGAGTCACGGTCTAGAGAT
DNA 2: ATCTCTAGACCGTGACTCAGCGAAAACAGACA
binding result (MafG-His;T7-HBZ-bZIP [1]): binds

B2: MARE MT probe (dsDNA)
DNA 1: AGCTCGGAATCAATGACTCATTGTTACTCTCG
DNA 2: CGAGAGTAACAATGAGTCATTGATTCCGAGCT
binding result (MafG-His [2]): no binding

B3: HMOX1 Distal 1 MARE probe (dsDNA)
DNA 1: GTGTTTTTCCTGCTGAGTCACGGTCCCGAGGT
DNA 2: ACCTCGGGACCGTGACTCAGCAGGAAAAACAC
binding result (MafG-His;T7-HBZ-bZIP [3]): binds

B4: T-MARE probe (dsDNA)
DNA 1: AGCTCGGAATTGCTGACTCAGCATTACTCTCG
DNA 2: CGAGAGTAATGCTGAGTCAGCAATTCCGAGCT
binding result (MafG-His [4]): binds
binding result (GST-HBZ): no binding
binding result (MafG-His;T7-HBZ-bZIP [5]): binds
binding result (GST-HBZ-AD): no binding

B5: HMOX1 Distal 2 MARE probe (dsDNA)
DNA 1: GATCTGTTTTCGCTGAGTCACGGTCCCGGTGT
DNA 2: ACACCGGGACCGTGACTCAGCGAAAACAGATC
binding result (MafG-His;T7-HBZ-bZIP [3]): binds

B6: HMOX1 proximal MARE probe (dsDNA)
DNA 1: TGCTAGATTTTGCTGAGTCACCAGTGCCTCCT
DNA 2: AGGAGGCACTGGTGACTCAGCAAAATCTAGCA
binding result (MafG-His;T7-HBZ-bZIP [6]): no binding
binding result (MafG-His [7]): binds
